Test results published in US20140087995A1 (published 2014).
Numbered stars: 1 amine (or outer) side, 2 acyl side, 3 side chain; on linkers, the order of the positions; unused ones are H or OH. Bridge positions count the residues as written; N and C are the ends. Side chains are listed from the residue outwards. Ends that are not written are not given here. * marks the point of attachment. C20 diacid = O=C(O)CCCCCCCCCCCCCCCCCCC(=O)*; γGlu = O=C(O)[C@H](CCC(=O)[*:2])N[*:1]; AEEA = NCCOCCOCC(=O)O

T1: human amylin receptor (human, UniProt P30988 25-474; O60896 24-148, limits assumed)
T1 construct: whole, on cells; Used as cell membranes prepared from the Amylin 3(a)/CRE-luc BHK cells (Assay V); also called hAmylin-R; hAmylinR
T1 sequence (looked up) 1: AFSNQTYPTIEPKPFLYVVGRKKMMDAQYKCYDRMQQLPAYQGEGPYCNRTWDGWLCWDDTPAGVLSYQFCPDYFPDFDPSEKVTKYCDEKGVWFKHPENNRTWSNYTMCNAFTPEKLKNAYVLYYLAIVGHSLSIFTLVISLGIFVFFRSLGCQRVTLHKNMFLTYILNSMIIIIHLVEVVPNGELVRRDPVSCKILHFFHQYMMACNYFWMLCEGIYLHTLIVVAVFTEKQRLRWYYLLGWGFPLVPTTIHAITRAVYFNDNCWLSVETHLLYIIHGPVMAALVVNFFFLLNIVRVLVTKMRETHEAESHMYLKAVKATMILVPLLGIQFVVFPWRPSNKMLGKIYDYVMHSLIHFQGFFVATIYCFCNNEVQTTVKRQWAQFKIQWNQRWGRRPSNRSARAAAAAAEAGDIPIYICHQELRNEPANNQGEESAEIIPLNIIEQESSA
T1 sequence (looked up) 2: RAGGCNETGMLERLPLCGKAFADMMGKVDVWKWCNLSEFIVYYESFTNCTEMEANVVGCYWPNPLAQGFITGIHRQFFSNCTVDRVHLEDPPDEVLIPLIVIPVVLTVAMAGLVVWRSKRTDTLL


Biological target: T1, human amylin receptor
Test: SPA competition vs 125I-rat amylin, membranes of amylin 3(a) receptor BHK cells (Assay V)
Outline: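 SPA beads with BHK Amylin 3(a)/CRE-luc cell membranes (35 ng/μL final) in 50 mM Hepes pH 7.4, 1 mM CaCl2, 5 mM MgCl₂, 0.1% OA, 0.02% Tween20.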

Binder	IC50 [nM]
K([γGlu-γGlu-C20 diacid])CNTATCATQRLAEFLRHSSPNFGAIPSSTNVGRETY-NH2 (disulfide 2-7; N-terminus assumed; SMILES CC[C@H](C)[C@H](NC(=O)[C@H](C)NC(=O)CNC(=O)[C@H](Cc1ccccc1)NC(=O)[C@H](CC(N)=O)NC(=O)[C@@H]1CCCN1C(=O)[C@H](CO)NC(=O)[C@H](CO)NC(=O)[C@H](Cc1c[nH]cn1)NC(=O)[C@H](CCCNC(=N)N)NC(=O)[C@H](CC(C)C)NC(=O)[C@H](Cc1ccccc1)NC(=O)[C@H](CCC(=O)O)NC(=O)[C@H](C)NC(=O)[C@H](CC(C)C)NC(=O)[C@H](CCCNC(=N)N)NC(=O)[C@H](CCC(N)=O)NC(=O)[C@@H](NC(=O)[C@H](C)NC(=O)[C@@H]1CSSC[C@H](NC(=O)[C@@H](N)CCCCNC(=O)CC[C@H](NC(=O)CC[C@H](NC(=O)CCCCCCCCCCCCCCCCCCC(=O)O)C(=O)O)C(=O)O)C(=O)N[C@@H](CC(N)=O)C(=O)N[C@@H]([C@@H](C)O)C(=O)N[C@@H](C)C(=O)N[C@@H]([C@@H](C)O)C(=O)N1)[C@@H](C)O)C(=O)N1CCC[C@H]1C(=O)N[C@@H](CO)C(=O)N[C@@H](CO)C(=O)N[C@H](C(=O)N[C@@H](CC(N)=O)C(=O)N[C@H](C(=O)NCC(=O)N[C@@H](CCCNC(=N)N)C(=O)N[C@@H](CCC(=O)O)C(=O)N[C@H](C(=O)N[C@@H](Cc1ccc(O)cc1)C(N)=O)[C@@H](C)O)C(C)C)[C@@H](C)O)	0.957
K([γGlu-γGlu-C20 diacid])CNTATCATQRLAEFLRHSSPNFGAIPSSTNVGHETY-NH2 (disulfide 2-7; N-terminus assumed; SMILES CC[C@H](C)[C@H](NC(=O)[C@H](C)NC(=O)CNC(=O)[C@H](Cc1ccccc1)NC(=O)[C@H](CC(N)=O)NC(=O)[C@@H]1CCCN1C(=O)[C@H](CO)NC(=O)[C@H](CO)NC(=O)[C@H](Cc1c[nH]cn1)NC(=O)[C@H](CCCNC(=N)N)NC(=O)[C@H](CC(C)C)NC(=O)[C@H](Cc1ccccc1)NC(=O)[C@H](CCC(=O)O)NC(=O)[C@H](C)NC(=O)[C@H](CC(C)C)NC(=O)[C@H](CCCNC(=N)N)NC(=O)[C@H](CCC(N)=O)NC(=O)[C@@H](NC(=O)[C@H](C)NC(=O)[C@@H]1CSSC[C@H](NC(=O)[C@@H](N)CCCCNC(=O)CC[C@H](NC(=O)CC[C@H](NC(=O)CCCCCCCCCCCCCCCCCCC(=O)O)C(=O)O)C(=O)O)C(=O)N[C@@H](CC(N)=O)C(=O)N[C@@H]([C@@H](C)O)C(=O)N[C@@H](C)C(=O)N[C@@H]([C@@H](C)O)C(=O)N1)[C@@H](C)O)C(=O)N1CCC[C@H]1C(=O)N[C@@H](CO)C(=O)N[C@@H](CO)C(=O)N[C@H](C(=O)N[C@@H](CC(N)=O)C(=O)N[C@H](C(=O)NCC(=O)N[C@@H](Cc1c[nH]cn1)C(=O)N[C@@H](CCC(=O)O)C(=O)N[C@H](C(=O)N[C@@H](Cc1ccc(O)cc1)C(N)=O)[C@@H](C)O)C(C)C)[C@@H](C)O)	0.525

These reach a lower IC50. Values come first.

IC50 [nM]	Binder
0.427	K([AEEA-γGlu-C20 diacid])CNTATCATQRLANFLRHSSPNFGAIPSSTNVGSNTY-NH2 (disulfide 2-7; N-terminus assumed; SMILES CC[C@H](C)[C@H](NC(=O)[C@H](C)NC(=O)CNC(=O)[C@H](Cc1ccccc1)NC(=O)[C@H](CC(N)=O)NC(=O)[C@@H]1CCCN1C(=O)[C@H](CO)NC(=O)[C@H](CO)NC(=O)[C@H](Cc1c[nH]cn1)NC(=O)[C@H](CCCNC(=N)N)NC(=O)[C@H](CC(C)C)NC(=O)[C@H](Cc1ccccc1)NC(=O)[C@H](CC(N)=O)NC(=O)[C@H](C)NC(=O)[C@H](CC(C)C)NC(=O)[C@H](CCCNC(=N)N)NC(=O)[C@H](CCC(N)=O)NC(=O)[C@@H](NC(=O)[C@H](C)NC(=O)[C@@H]1CSSC[C@H](NC(=O)[C@@H](N)CCCCNC(=O)COCCOCCNC(=O)CC[C@H](NC(=O)CCCCCCCCCCCCCCCCCCC(=O)O)C(=O)O)C(=O)N[C@@H](CC(N)=O)C(=O)N[C@@H]([C@@H](C)O)C(=O)N[C@@H](C)C(=O)N[C@@H]([C@@H](C)O)C(=O)N1)[C@@H](C)O)C(=O)N1CCC[C@H]1C(=O)N[C@@H](CO)C(=O)N[C@@H](CO)C(=O)N[C@H](C(=O)N[C@@H](CC(N)=O)C(=O)N[C@H](C(=O)NCC(=O)N[C@@H](CO)C(=O)N[C@@H](CC(N)=O)C(=O)N[C@H](C(=O)N[C@@H](Cc1ccc(O)cc1)C(N)=O)[C@@H](C)O)C(C)C)[C@@H](C)O, also called compound 41)
0.403	{C20 diacid-γGlu}-KCNTATCATQRLAEFLRHSSPNFGAIPSSTNVGKNTY-NH2 (disulfide 2-7; SMILES CC[C@H](C)[C@H](NC(=O)[C@H](C)NC(=O)CNC(=O)[C@H](Cc1ccccc1)NC(=O)[C@H](CC(N)=O)NC(=O)[C@@H]1CCCN1C(=O)[C@H](CO)NC(=O)[C@H](CO)NC(=O)[C@H](Cc1c[nH]cn1)NC(=O)[C@H](CCCNC(=N)N)NC(=O)[C@H](CC(C)C)NC(=O)[C@H](Cc1ccccc1)NC(=O)[C@H](CCC(=O)O)NC(=O)[C@H](C)NC(=O)[C@H](CC(C)C)NC(=O)[C@H](CCCNC(=N)N)NC(=O)[C@H](CCC(N)=O)NC(=O)[C@@H](NC(=O)[C@H](C)NC(=O)[C@@H]1CSSC[C@H](NC(=O)[C@H](CCCCN)NC(=O)CC[C@H](NC(=O)CCCCCCCCCCCCCCCCCCC(=O)O)C(=O)O)C(=O)N[C@@H](CC(N)=O)C(=O)N[C@@H]([C@@H](C)O)C(=O)N[C@@H](C)C(=O)N[C@@H]([C@@H](C)O)C(=O)N1)[C@@H](C)O)C(=O)N1CCC[C@H]1C(=O)N[C@@H](CO)C(=O)N[C@@H](CO)C(=O)N[C@H](C(=O)N[C@@H](CC(N)=O)C(=O)N[C@H](C(=O)NCC(=O)N[C@@H](CCCCN)C(=O)N[C@@H](CC(N)=O)C(=O)N[C@H](C(=O)N[C@@H](Cc1ccc(O)cc1)C(N)=O)[C@@H](C)O)C(C)C)[C@@H](C)O, also called compound 36)
0.121	K([γGlu-γGlu-C20 diacid])CNTATCATQRLAEFLRHSSPNFGAIPSSTNVGPETY-NH2 (disulfide 2-7; N-terminus assumed; SMILES CC[C@H](C)[C@H](NC(=O)[C@H](C)NC(=O)CNC(=O)[C@H](Cc1ccccc1)NC(=O)[C@H](CC(N)=O)NC(=O)[C@@H]1CCCN1C(=O)[C@H](CO)NC(=O)[C@H](CO)NC(=O)[C@H](Cc1c[nH]cn1)NC(=O)[C@H](CCCNC(=N)N)NC(=O)[C@H](CC(C)C)NC(=O)[C@H](Cc1ccccc1)NC(=O)[C@H](CCC(=O)O)NC(=O)[C@H](C)NC(=O)[C@H](CC(C)C)NC(=O)[C@H](CCCNC(=N)N)NC(=O)[C@H](CCC(N)=O)NC(=O)[C@@H](NC(=O)[C@H](C)NC(=O)[C@@H]1CSSC[C@H](NC(=O)[C@@H](N)CCCCNC(=O)CC[C@H](NC(=O)CC[C@H](NC(=O)CCCCCCCCCCCCCCCCCCC(=O)O)C(=O)O)C(=O)O)C(=O)N[C@@H](CC(N)=O)C(=O)N[C@@H]([C@@H](C)O)C(=O)N[C@@H](C)C(=O)N[C@@H]([C@@H](C)O)C(=O)N1)[C@@H](C)O)C(=O)N1CCC[C@H]1C(=O)N[C@@H](CO)C(=O)N[C@@H](CO)C(=O)N[C@H](C(=O)N[C@@H](CC(N)=O)C(=O)N[C@H](C(=O)NCC(=O)N1CCC[C@H]1C(=O)N[C@@H](CCC(=O)O)C(=O)N[C@H](C(=O)N[C@@H](Cc1ccc(O)cc1)C(N)=O)[C@@H](C)O)C(C)C)[C@@H](C)O)
